Measurements as given in patent CN116199772A (YIDAO BIOTECHNOLOGY SUZHOU CO LTD, dated 2023).

Key:
Experiment in all cases: indirect ELISA, cross-reaction on 9 HPV type antigens
[1] = molecular target: T1, HPV 33亚型抗原 (Human papillomavirus type 33, UniProt P06416 1-499)
T1 construct: Called only 'HPV 33 antigen'
T1 sequence: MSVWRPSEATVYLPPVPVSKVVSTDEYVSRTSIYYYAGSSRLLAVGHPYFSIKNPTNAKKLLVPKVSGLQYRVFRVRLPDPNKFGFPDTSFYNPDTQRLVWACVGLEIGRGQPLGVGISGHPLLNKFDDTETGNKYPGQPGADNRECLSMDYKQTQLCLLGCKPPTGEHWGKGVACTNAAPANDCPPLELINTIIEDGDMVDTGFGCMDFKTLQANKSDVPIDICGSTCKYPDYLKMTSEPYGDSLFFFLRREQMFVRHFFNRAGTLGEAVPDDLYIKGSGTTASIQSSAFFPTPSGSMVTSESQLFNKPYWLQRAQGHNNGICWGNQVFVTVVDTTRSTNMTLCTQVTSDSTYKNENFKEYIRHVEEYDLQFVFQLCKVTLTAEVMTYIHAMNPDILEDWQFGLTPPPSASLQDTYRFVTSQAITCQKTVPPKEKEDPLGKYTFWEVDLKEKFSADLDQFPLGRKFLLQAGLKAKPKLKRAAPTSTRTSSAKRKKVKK

[2] = molecular target: T2, HPV 45亚型抗原 (Human papillomavirus type 45, UniProt P36741 30-539)
T2 construct: Called only 'HPV 45 antigen'
T2 sequence: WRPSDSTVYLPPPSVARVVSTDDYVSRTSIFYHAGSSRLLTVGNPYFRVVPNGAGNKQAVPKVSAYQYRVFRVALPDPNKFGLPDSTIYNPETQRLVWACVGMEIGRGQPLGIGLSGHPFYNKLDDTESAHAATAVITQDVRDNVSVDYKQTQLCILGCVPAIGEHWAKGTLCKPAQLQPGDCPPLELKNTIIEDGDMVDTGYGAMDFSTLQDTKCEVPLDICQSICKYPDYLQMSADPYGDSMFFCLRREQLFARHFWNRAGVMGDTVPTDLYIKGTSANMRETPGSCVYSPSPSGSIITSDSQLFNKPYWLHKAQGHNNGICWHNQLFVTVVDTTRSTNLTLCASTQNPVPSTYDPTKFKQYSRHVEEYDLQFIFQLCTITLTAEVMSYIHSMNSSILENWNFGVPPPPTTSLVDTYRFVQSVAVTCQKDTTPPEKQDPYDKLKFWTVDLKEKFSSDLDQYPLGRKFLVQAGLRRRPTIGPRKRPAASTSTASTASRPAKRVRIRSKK

[3] = molecular target: T3, HPV11亚型抗原 (Human papillomavirus type 11, UniProt P04012 1-501)
T3 construct: Called only 'HPV11 antigen'
T3 sequence: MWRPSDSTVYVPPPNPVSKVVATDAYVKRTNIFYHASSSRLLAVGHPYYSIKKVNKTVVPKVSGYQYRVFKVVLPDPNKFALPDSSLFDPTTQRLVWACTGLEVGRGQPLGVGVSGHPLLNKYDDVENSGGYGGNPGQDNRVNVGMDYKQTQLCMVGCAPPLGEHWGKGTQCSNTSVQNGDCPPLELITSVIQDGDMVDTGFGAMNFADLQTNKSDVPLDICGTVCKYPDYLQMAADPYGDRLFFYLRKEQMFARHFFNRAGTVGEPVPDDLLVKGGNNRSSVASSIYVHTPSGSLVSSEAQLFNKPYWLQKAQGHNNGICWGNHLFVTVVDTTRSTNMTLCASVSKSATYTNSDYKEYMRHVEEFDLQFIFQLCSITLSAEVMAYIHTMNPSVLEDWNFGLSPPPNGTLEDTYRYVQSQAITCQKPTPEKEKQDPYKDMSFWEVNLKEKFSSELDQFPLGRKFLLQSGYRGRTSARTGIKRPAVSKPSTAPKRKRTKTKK

[4] = molecular target: T4, HPV18亚型抗原 (Human papillomavirus type 18, UniProt P06794 62-568)
T4 construct: Called only 'HPV18 antigen'
T4 sequence: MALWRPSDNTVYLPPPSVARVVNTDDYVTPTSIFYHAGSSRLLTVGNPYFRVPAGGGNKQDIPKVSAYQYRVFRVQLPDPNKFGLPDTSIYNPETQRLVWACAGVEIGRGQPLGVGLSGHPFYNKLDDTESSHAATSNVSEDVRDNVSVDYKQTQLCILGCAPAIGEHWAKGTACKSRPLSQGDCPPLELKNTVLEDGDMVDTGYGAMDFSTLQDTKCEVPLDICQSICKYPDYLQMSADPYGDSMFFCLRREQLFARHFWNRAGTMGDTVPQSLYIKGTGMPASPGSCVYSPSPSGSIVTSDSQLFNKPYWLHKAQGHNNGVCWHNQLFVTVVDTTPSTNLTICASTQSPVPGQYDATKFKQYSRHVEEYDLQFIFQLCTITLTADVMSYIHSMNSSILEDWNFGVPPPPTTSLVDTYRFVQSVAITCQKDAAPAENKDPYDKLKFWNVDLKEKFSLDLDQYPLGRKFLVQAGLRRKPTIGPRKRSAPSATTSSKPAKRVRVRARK

[5] = molecular target: T5, HPV 16亚型抗原 (Human papillomavirus type 16, UniProt P03101 1-505)
T5 construct: Called only 'HPV 16 antigen'
T5 sequence: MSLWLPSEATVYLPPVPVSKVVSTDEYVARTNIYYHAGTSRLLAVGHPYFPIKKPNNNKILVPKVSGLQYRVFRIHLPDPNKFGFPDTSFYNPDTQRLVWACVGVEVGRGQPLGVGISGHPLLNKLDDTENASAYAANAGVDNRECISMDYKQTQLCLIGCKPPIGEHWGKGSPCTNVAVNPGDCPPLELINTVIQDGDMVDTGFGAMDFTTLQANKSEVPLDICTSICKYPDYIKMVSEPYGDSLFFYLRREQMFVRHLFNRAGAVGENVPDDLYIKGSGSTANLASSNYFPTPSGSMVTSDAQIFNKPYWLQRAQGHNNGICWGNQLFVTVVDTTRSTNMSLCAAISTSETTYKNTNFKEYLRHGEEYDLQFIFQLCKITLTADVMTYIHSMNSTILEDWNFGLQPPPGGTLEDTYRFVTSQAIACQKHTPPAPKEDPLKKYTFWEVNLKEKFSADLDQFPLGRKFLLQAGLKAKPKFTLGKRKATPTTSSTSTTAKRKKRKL

[6] = molecular target: T6, HPV 58亚型抗原 (Human papillomavirus type 58, UniProt P26535 27-524)
T6 construct: Called only 'HPV 58 antigen'
T6 sequence: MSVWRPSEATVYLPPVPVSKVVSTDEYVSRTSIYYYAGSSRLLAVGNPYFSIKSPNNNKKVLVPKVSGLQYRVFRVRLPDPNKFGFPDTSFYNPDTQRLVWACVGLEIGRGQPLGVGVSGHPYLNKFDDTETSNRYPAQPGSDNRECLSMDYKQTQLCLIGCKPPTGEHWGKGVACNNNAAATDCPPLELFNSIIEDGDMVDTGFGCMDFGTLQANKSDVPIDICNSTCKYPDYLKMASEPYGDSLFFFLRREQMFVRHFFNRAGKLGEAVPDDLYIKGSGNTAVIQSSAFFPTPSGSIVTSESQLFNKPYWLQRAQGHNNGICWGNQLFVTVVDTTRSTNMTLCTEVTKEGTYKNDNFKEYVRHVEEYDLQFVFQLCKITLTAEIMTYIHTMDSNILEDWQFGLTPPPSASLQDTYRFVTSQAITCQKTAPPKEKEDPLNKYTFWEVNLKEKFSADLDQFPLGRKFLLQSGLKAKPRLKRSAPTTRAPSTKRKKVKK

B1: HPV31型单克隆抗体(7H9) (antibody, V domains shown)
VH: QIQLVQSGPELKKPGETVKISCKASGYTFTNYGMNWVKQAPGKGLKWMGWINTYTGEPTYADDFKGRFAFSLETSANTAYLQITNLKNEDMATYFCARRITMEYYYGLDCWGQGTSVTVSS
VL: QAVVTQESALTTSPGETVTLTCRSSTGAVTTSNYANWVQEKPDHLFSGLIGGTNNRVPGVPARFSGSLIGDKAALTITGAQTEDEAIYFCALWYSNHWVFGGGTKLTVL
notes: also called 7H9抗体; HPV31型(7H9)鼠单抗
B1: no binding (tested: 抗原1μg/ml包被; 杂交瘤细胞上清20倍稀释) [1]; no binding (tested: 抗原1μg/ml包被; 杂交瘤细胞上清20倍稀释) [2]; no binding (tested: 抗原1μg/ml包被; 杂交瘤细胞上清20倍稀释) [3]. B1: no binding (tested: 抗原1μg/ml包被; 杂交瘤细胞上清20倍稀释) [4]; no binding (tested: 抗原1μg/ml包被; 杂交瘤细胞上清20倍稀释) [5]; no binding (tested: 抗原1μg/ml包被; 杂交瘤细胞上清20倍稀释) [6].
